Source: the RNAGym collection of RNA variant scans (doi:10.7554/elife.80360)

B1: CPEB3 Ribozyme (parent)
chain: GGGGGCCACAGCAGAAGCGUUCACGUCGCGGCCCCUGUCAGAUUCUGGUGAAUCUGCGAAUUCUGCUGU

Variants of: B1
Assay: self-cleavage, relative activity (ratio to wild type); higher = more cleavage; co-transcriptional

| Variant | self-cleavage |
| --- | --- |
| A42U | 0.965 |
| A42C | 0.961 |
| A42G | 0.951 |
| U44A C54G | 0.461 |
| U44A C54A | 0.588 |
| A42G U55C | 0.492 |
| A42G U55A | 0.543 |
| U44A C63A | 0.731 |
| A42U A60U | 0.436 |
| A42U A60C | 0.219 |
| A42U A60G | 0.74 |
| A42U G56A | 0.799 |
| A42U G56U | 0.517 |
| U43C A59C | 0.652 |
| U43C A59U | 0.68 |
| U43C A59G | 1.02 |
| A42C U46G | 0.929 |
| G41U U69A | 0.995 |
| G41U U69G | 1.02 |
| A42G G56A | 0.761 |
| A42G G56C | 0.475 |
| A42G U69C | 1.04 |
| A42G U69G | 1.03 |
| U44A C45U | 0.965 |

| Variant | self-cleavage |
| --- | --- |
| U44A C45G | 0.983 |
| A42U U62C | 0.721 |
| A42U U62G | 0.738 |
| A42U U62A | 0.809 |
| A42C G47A | 0.921 |
| A42C U62A | 0.673 |
| A42C U62C | 0.659 |
| A42C U62G | 0.757 |
| U43G A60G | 0.556 |
| U43G A60C | 0.498 |
| U43G A60U | 0.419 |
| U43G C63G | 0.446 |
| U43A G58U | 0.946 |
| U43A G58A | 0.929 |
| U43C G65C | 0.567 |
| U43A U64A | 0.591 |
| U43A U64C | 0.649 |
| U43A U53G | 0.773 |
| U43G U49A | 0.963 |
| U43G U49C | 0.815 |
| U43G U49G | 0.922 |
| U43C C63A | 0.619 |
| U43C C63G | 0.648 |
| U43A A60U | 0.29 |

| Variant | self-cleavage |
| --- | --- |
| U43A A60G | 0.683 |
| U43A C63G | 0.45 |
| U43A C63A | 0.504 |
| U43A G50A | 0.962 |
| U43A G50C | 0.91 |
| U43A G50U | 0.959 |
| U43C C66G | 0.806 |
| U43C C66U | 0.89 |
| A42U A59G | 0.965 |
| U43C U55A | 0.632 |
| U43C U55C | 0.455 |
| A42C C54G | 0.73 |
| U43G U44A | 0.971 |
| U43G U44C | 0.936 |
| A42C C66U | 0.96 |
| A42C C66G | 0.661 |
| U43C G56A | 0.861 |
| U43C G56C | 0.494 |
| U43G A52G | 0.911 |
| U43G A52U | 0.992 |
| U43G A52C | 0.962 |
| U43G G58C | 0.959 |
| U43G G58U | 0.946 |
| U43A C45U | 1.03 |

| Variant | self-cleavage |
| --- | --- |
| U43A C45A | 0.859 |
| G41U U61G | 0.314 |
| A42G C63G | 0.583 |
| A42G C63A | 0.617 |
| A42G C63U | 0.889 |
| U43A G68U | 0.973 |
| U43A G68C | 1.01 |
| A42G U49C | 0.901 |
| A42G U49A | 0.938 |
| A42G U49G | 0.96 |
| A42G C54U | 0.799 |
| A42C U43A | 0.778 |
| A42C U43G | 0.703 |
| U43G U64A | 0.506 |
| U43G U64C | 0.409 |
| A42G G47U | 0.988 |
| A42G G47A | 0.955 |
| U43A U49C | 0.939 |
| U43A U49A | 0.944 |
| U43A U49G | 0.955 |
| U43A U62A | 0.587 |
| U43A U62G | 0.641 |
| A42C U53A | 1.03 |
| A42U G65C | 0.433 |

| Variant | self-cleavage |
| --- | --- |
| A42U G65U | 0.481 |
| A42U G65A | 0.661 |
| U43C A51C | 0.968 |
| U44A C57U | 0.397 |
| U44A C57A | 0.383 |
| U44A C57G | 0.365 |
| U43C G68U | 1 |
| U44A A52U | 0.969 |
| U44A A60U | 0.353 |
| U44A A60C | 0.423 |
| A42C G58C | 1.04 |
| A42U G58A | 0.923 |
| A42U G58C | 0.97 |
| A42G U46G | 0.941 |
| A42G U46A | 0.935 |
| U43C U49C | 0.984 |
| U43A U44C | 0.987 |
| U43A U44A | 0.888 |
| U43A U44G | 0.957 |
| U43A C66U | 0.831 |
| U43A C66A | 0.416 |
| G41U U62C | 0.384 |
| G41U U62A | 0.506 |
| U43G G48C | 0.933 |

| Variant | self-cleavage |
| --- | --- |
| U43G G48A | 0.964 |
| A42U U55A | 0.485 |
| A42U U55G | 0.276 |
| A42C U61C | 0.477 |
| A42C U61A | 0.742 |
| A42U U44A | 0.898 |
| U43G G56A | 0.481 |
| U43G G56C | 0.329 |
| A42U U67G | 0.951 |
| A42U U67A | 0.95 |
| A42U U61G | 0.448 |
| A42U U61A | 0.744 |
| U43A A51G | 0.928 |
| U43A A51U | 0.939 |
| A42U C57U | 0.436 |
| U43A G47U | 0.987 |
| U43A G47A | 0.972 |
| U43A G47C | 0.954 |
| U43C U64A | 0.713 |
| U43C U64G | 0.825 |
| U43C U64C | 0.671 |
| A42U U43A | 0.914 |
| A42G C45A | 1.01 |
| A42G C45U | 0.927 |

| Variant | self-cleavage |
| --- | --- |
| U43C C45U | 1.01 |
| U43A C54A | 0.599 |
| U43A C54G | 0.418 |
| U43C U44C | 0.937 |
| U43C U44A | 1.02 |
| A42U A51C | 0.839 |
| A42U A51U | 0.914 |
| A42G U62C | 0.647 |
| A42G U43C | 0.935 |
| A42G U43G | 0.565 |
| A42G U43A | 0.853 |
| A42C A60U | 0.459 |
| A42U G47U | 1.02 |
| A42U G47C | 0.993 |
| U43A G48A | 1.04 |
| U43A G48U | 0.983 |
| A42U G68A | 0.956 |
| A42U U49C | 0.915 |
| A42U U49G | 0.957 |
| U43C U69A | 1.01 |
| U43G U53A | 0.8 |
| U43G U53G | 0.854 |
| U43G A51U | 0.934 |
